The target in assay [1] is human fibronectin (human) (UniProt P02751). Briefly: Scatchard analysis (LIGAND) of 125I-fibronectin binding to coated fibronectin competed by unlabeled fibronectin; low affinity site.
For assay [2] the target is unchanged. Nature of the assay: Scatchard analysis (LIGAND) of 125I-fibronectin binding to coated fibronectin competed by unlabeled fibronectin.
For assay [3] the target is unchanged. Briefly: Scatchard analysis (LIGAND), fibronectin on coated fibronectin.

Several values for one entry are separate records, joined by “and”; a condition that tells them apart may be missing. Equal entries are not always repeated.

What is called Kd is the concentration at which binding is half-saturated. A lower Kd goes with tighter binding. In assay [1], human fibronectin (from UniProt P02751) gave a Kd of 800 nM. The Kd in assay [2] turned out to be 8 nM. In addition, in assay [3], the binding sites per 1000 fibronectin dimers, high affinity site (sites per 1000 fibronectin dimers) was 1 and 2; the binding sites per fibronectin dimer, low affinity site (sites per fibronectin dimer) was 1 and 2.

(Values after patent US5837813.)
